Where no end group is shown, it is not given here. [ ]: non-standard residue; d: D form. Phe(4-Br) = N[C@@H](Cc1ccc(Br)cc1)C(=O)O; pGlu = O=C1CC[C@@H](C(=O)O)N1; Nle = CCCC[C@H](N)C(=O)O; Aib = CC(C)(N)C(=O)O

The target in this assay is wild-type rat apelin receptor tagged at its C-terminus with EGFP (rat) (UniProt Q9JHG3). Briefly: displacement of 0.2 nM [125I]-pyr-1-apelin-13; membranes of CHO cells expressing rat apelin receptor-EGFP.
wild-type rat apelin receptor tagged at its C-terminus with EGFP (rat), sequence (Q9JHG3 whole entry, the tested form may be a part): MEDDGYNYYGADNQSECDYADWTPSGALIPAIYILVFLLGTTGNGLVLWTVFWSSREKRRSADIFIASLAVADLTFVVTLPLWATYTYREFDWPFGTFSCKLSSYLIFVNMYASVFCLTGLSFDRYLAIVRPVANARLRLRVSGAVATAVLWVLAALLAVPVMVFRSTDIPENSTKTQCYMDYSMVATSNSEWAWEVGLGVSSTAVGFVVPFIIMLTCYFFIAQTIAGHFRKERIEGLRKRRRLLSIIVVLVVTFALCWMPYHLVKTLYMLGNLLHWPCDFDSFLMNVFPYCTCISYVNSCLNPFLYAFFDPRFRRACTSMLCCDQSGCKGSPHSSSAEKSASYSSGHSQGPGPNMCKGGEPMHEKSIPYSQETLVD
Regarding XRPRXSHKGPXXX (pGlu at 1; NMeLeu at 5; Nle at 11; Aib at 12; paraBrPhe at 13) [N-MeLeu5-pyr-1-apelin-13 A2 (10)], the Ki – broadly, a measure of affinity in units of concentration, obtained from inhibition or displacement – was 100 pM. On the same count and under the same terms, for XRPRXSHKGPXXX (pGlu at 1; αMeLeu at 5; Nle at 11; Aib at 12; paraBrPhe at 13) [α-MeLeu5-pyr-1-apelin-13 A2 (14)] the value was 170 pM; for XRPRXSHKGPXXX (pGlu at 1; azaLeu at 5; Nle at 11; Aib at 12; paraBrPhe at 13) [azaLeu5-pyr-1-apelin-13 A2 (18)], 130 pM. Take [pGlu]RP[azaArg]LSHKGP[Nle][Aib][Phe(4-Br)] [azaArg4-pyr-1-apelin-13 A2 (16)]: the Ki was 1000 pM and the factor of weaker affinity compared to 1 stood at 3 fold.

The molecule XRPXLSHKGPXXX (pGlu at 1; αMeArg at 4; Nle at 11; Aib at 12; paraBrPhe at 13) [α-MeArg4-pyr-1-apelin-13 A2 (12)] showed a Ki of 560 pM and a factor of weaker affinity compared to 1 of 2 fold. The molecule XRPRXSHKGPXXX (pGlu at 1; D-Leu at 5; Nle at 11; Aib at 12; paraBrPhe at 13) [D-Leu5-pyr-1-apelin-13 A2 (8)] returned a Ki of 120 pM.

The record behind these values is patent US20200239537A1.
